{
  "source": "paper PMC9942873",
  "binders": {"B1": {"name": "RUPA-160 (hIgG1) (antibody, V domains shown)", "VH": "QVQLVQSGAEVKKPGASVKASCKASGYTFDNFDIIWARQATGQGLEWMGWMNPNTGKKGYAQNLKDRVTMTRDSSISTAYLELSSLRSEDTAVYYCVRAVGSYYGSGGWFDPWGQGTLVTVSS", "VL": "QSVLTQPPSASGTPGQRVTIACSGSSSNIGGNNVKWYQQLPGTAPKLVIYNNDERPPGVPDRVSGSKSGTSASLAISGVQSEDEADYYCATWDDSMKREVFGGGTKLTVL"}, "B2": {"name": "RUPA-50 (hIgG1) (antibody, V domains shown)", "VH": "QVHLVESGGGVVQPGRSLRLSCAASGFTFRSYGMHWVRRVPGKGLEWVATISYDETFKDYPDSVKGRFTISRDNSKNTLFLQMNSLRPADTAVYYCAKDRAHSMHYFEYWGRGTLVTVSS", "VL": "SYELTQPPSVSVSPGQTARLTCSGDALPKKFAYWYQLKSGQAPVLVIYEDSKRPSGIPERFSGSSSGTTATLTISGAQVEDEADYYCYSRDGSGDQKNIFGGGTKLTVL"}, "B3": {"name": "RUPA-44 (Fab) (Fab, V domains shown)", "VH": "QLQLQESGPGLVKPSETLSLTCTVSGGSISRSPYYWGWIRQPPGKGLEWFGSIYNNGSTYYNPPLKSRLTISVDTSKNQFSLKLSSVTAADTAVYYCARHGGSTGMKVVVIAPPDYWGQGTLVTVSS", "VL": "DIQMTQSPATLSASVGDRVTITCRASQSISSWLAWYQQKPGEAPKLLIYKASSLQSGVPSRFSGSGSGTKFSLTISSLQPDDFATFYCQQYHSYPYTFGQGTKLEIK"}, "B4": {"name": "RUPA-117 (Fab) (Fab, V domains shown)", "VH": "B3 VH with I53V, P64S, L69V, V94L", "VL": "B3 VL with S31I, G66A"}, "B5": {"name": "RUPA-29 (hIgG1) (antibody, V domains shown)", "VH": "QVHLVESGGGVVQPGRSLRLSCAASGFTFRSYGMHWVRLAPGKGLEWVTAIWYDGSKKHFADSVKGRFTISRDNSKNTLYLQMSSLRVEDTAVYYCARDFAHGAFYPVDWGRGTLVTVSS", "VL": "SYELTQPPSVSVSPGQTARITCSGDALPKKHAYWYQQKSGQAPVLVIYDDSKRPSGIPERFSGSSSGTMATLSISGAQVEDEAAYYCYSSDTSANYWVFGGGTKLTVL"}, "B6": {"name": "RUPA-29 (Fab) (Fab, V domains shown)", "VH": "B5 VH", "VL": "B5 VL"}, "B7": {"name": "RUPA-47 (Fab) (Fab, V domains shown)", "VH": "QVQLVQSGAEVKKPGASVKLSCTASGYTFTNFGITWVRQAPGQGLEWMAWISVYSGDTDYAQRFQGRVTMTTDTSTRTAYMEMRSLSFDDTAVYYCVRGGRDSPILGGYWGQGTLVTVSS", "VL": "EIVLTQSPGTLSLSPGERVTLSCRASQSVRSMYLAWYQQKPGQAPRLLIHGASIRATGIPDRFSGSGSGTDFTLTISRLEREDFAVYYCHQYGSSPLTFGGGTKVESK"}, "B8": {"name": "RUPA-54 (hIgG1) (antibody, V domains shown)", "VH": "QVQLVESGGGVVQPGRSLRLSCTASGFTFRSYGIHWVRQAPGKGLQWVAFISYDGRNKYYADSVKGRFTISRDNSKNTLYLQMSGLRADDTAVYYCAKDSDNDCTATSCYTVSWGQGTLVTVSS", "VL": "SYELTQPPSVSVSPGQTARITCSGDALPKKYAYWYQQKSGQAPVLVIYEDKKRPSGIPERFSGSSSGTMATLTISGAQVEDEADYYCYSTDSRTDHGGIFGGGTKLTVL"}, "B9": {"name": "RUPA-100 (hIgG1) (antibody, V domains shown)", "VH": "QVQLVESGGGVVQPGRSLRLSCAASGFSFSHYGMHWVRQAPGKGLEWVAVISYDGNYKYYGDSVKGRFTISRDNFKNTLYLQMNSLRPEDTAVYYCAKGKAHSCVSTSCYTDFWGQGTLVTVPS", "VL": "B8 VL with K51S, A83G, R93S, T94Y, D95N, G97R, I99V"}},
  "key": {"[1]": {"biological_target": "Pfs48/45 in its native configuration on the female gamete surface membrane (Plasmodium falciparum NF54 (endogenous in gametes))"}, "[2]": {"biological_target": "Pfs48/45 6C.mAgE1 (K416N; C terminal 6x HIS tag) (Plasmodium falciparum)", "experiment": "BLI"}, "[3]": {"biological_target": "Pfs48/45 6C.mAgE1 (S322N; C terminal 6x HIS tag) (Plasmodium falciparum)", "experiment": "BLI"}, "[4]": {"biological_target": "Pfs48/45 6C.mAgE1 (L314I; C terminal 6x HIS tag) (Plasmodium falciparum)", "experiment": "BLI"}, "[5]": {"biological_target": "Pfs48/45 6C.mAgE1 (D320H; C terminal 6x HIS tag) (Plasmodium falciparum)", "experiment": "BLI"}, "[6]": {"biological_target": "Pfs48/45 in its native configuration on the female gamete surface membrane (Plasmodium falciparum NF54 (endogenous in gametes))", "remark": "listed apart in the source"}},
  "note": "Residue numbers refer to the chain shown, from its start. Where two headings read alike, the source gives them in different places.",
  "data": [
    {"binder": "B1", "values": [
      {"measurement": "other", "setting": "[1]", "result": 80, "unit": "% TRA"}
    ]},
    {"binder": "B2", "values": [
      {"measurement": "other", "setting": "[1]", "result": "> 80", "unit": "% TRA"}
    ]},
    {"binder": "B3", "values": [
      {"measurement": "Kd", "setting": "[2]", "result": "< 20", "unit": "nM"},
      {"measurement": "Kd", "setting": "[3]", "result": "< 20", "unit": "nM"},
      {"measurement": "Kd", "setting": "[4]", "result": "< 20", "unit": "nM"},
      {"measurement": "Kd", "setting": "[5]", "result": "< 20", "unit": "nM"}
    ]},
    {"binder": "B4", "values": [
      {"measurement": "Kd", "setting": "[2]", "result": "< 20", "unit": "nM"},
      {"measurement": "Kd", "setting": "[3]", "result": "< 20", "unit": "nM"},
      {"measurement": "Kd", "setting": "[4]", "result": "< 20", "unit": "nM"},
      {"measurement": "Kd", "setting": "[5]", "result": "< 20", "unit": "nM"}
    ]},
    {"binder": "B5", "values": [
      {"measurement": "other", "setting": "[1]", "result": "> 80", "unit": "% TRA"}
    ]},
    {"binder": "B6", "values": [
      {"measurement": "Kd", "setting": "[2]", "result": 109, "unit": "nM"}
    ]},
    {"binder": "B7", "values": [
      {"measurement": "other", "setting": "[6]", "result": 100, "unit": "% TRA"}
    ]},
    {"binder": "B8", "values": [
      {"measurement": "other", "setting": "[1]", "result": "> 80", "unit": "% TRA"}
    ]},
    {"binder": "B9", "values": [
      {"measurement": "other", "setting": "[1]", "result": "> 80", "unit": "% TRA"}
    ]}
  ]
}
